{
  "source": "paper PMC7016142",
  "about": "“Tripartite phase separation of two signal effectors with vesicles priming B cell responsiveness” (Nature Communications, 2020)",
  "binders": {"B1": {"name": "SLP65_(1-330) (domain or fragment, human, UniProt Q8WV28 1-330, looked up)", "chain": "MDKLNKITVPASQKLRQLQKMVHDIKNNEGGIMNKIKKLKVKAPPSVPRRDYASESPADEEEQWSDDFDSDYENPDEHSDSEMYVMPAEENADDSYEPPPVEQETRPVHPALPFARGEYIDNRSSQRHSPPFSKTLPSKPSWPSEKARLTSTLPALTALQKPQVPPKPKGLLEDEADYVVPVEDNDENYIHPTESSSPPPEKAPMVNRSTKPNSSTPASPPGTASGRNSGAWETKSPPPAAPSPLPRAGKKPTTPLKTTPVASQQNASSVCEEKPIPAERHRGSSHRQEAVQSPVFPPAQKQIHQKPIPLPRFTEGGNPTVDGPLPSFSS", "modifications": "15N-labeled", "notes": "SLP65 (BLNK), human, residues 1-330 (without the C-terminal SH2 domain); also called BLNK; Src homology (SH) 2 domain-containing leukocyte protein of 65 kDa; source: E. coli BL21(DE3), purified (Ni-NTA, TEV cleavage, size exclusion); not shown: His7, N-terminal, cleaved"}, "B2": {"name": "SLP65_(40-330), MTSL-tagged at C271 (domain or fragment, human, UniProt Q8WV28 40-330, looked up)", "chain": "KVKAPPSVPRRDYASESPADEEEQWSDDFDSDYENPDEHSDSEMYVMPAEENADDSYEPPPVEQETRPVHPALPFARGEYIDNRSSQRHSPPFSKTLPSKPSWPSEKARLTSTLPALTALQKPQVPPKPKGLLEDEADYVVPVEDNDENYIHPTESSSPPPEKAPMVNRSTKPNSSTPASPPGTASGRNSGAWETKSPPPAAPSPLPRAGKKPTTPLKTTPVASQQNASSVCEEKPIPAERHRGSSHRQEAVQSPVFPPAQKQIHQKPIPLPRFTEGGNPTVDGPLPSFSS", "modifications": "nitroxide spin label MTSL on C271", "notes": "SLP65 (BLNK), human, residues 40-330, naturally contains a single cysteine (C271); also called MTSL-tagged SLP65 constructs; source: E. coli BL21(DE3), purified (Ni-NTA, TEV cleavage, size exclusion); not shown: His7, N-terminal, cleaved"}, "B3": {"name": "SLP65_(40-330) (C271A, Q302C), MTSL-tagged (domain or fragment, human, UniProt Q8WV28 40-330, looked up)", "chain": "B2 chain with C232A, Q263C", "modifications": "nitroxide spin label MTSL on the single cysteine (Q302C)", "notes": "SLP65 (BLNK), human, residues 40-330; also called MTSL-tagged SLP65 constructs; source: E. coli BL21(DE3), purified (Ni-NTA, TEV cleavage, size exclusion); not shown: His7, N-terminal, cleaved"}, "B4": {"name": "SLP65_(40-330) (C271A, S236C), MTSL-tagged (domain or fragment, human, UniProt Q8WV28 40-330, looked up)", "chain": "B2 chain with S197C, C232A", "modifications": "nitroxide spin label MTSL on the single cysteine (S236C)", "notes": "as for B3"}, "B5": {"name": "SLP65_(40-330) (C271A, S141C), MTSL-tagged (domain or fragment, human, UniProt Q8WV28 40-330, looked up)", "chain": "B2 chain with S102C, C232A", "modifications": "nitroxide spin label MTSL on the single cysteine (S141C)", "notes": "as for B3"}},
  "details_in_all_cases": "both partners purified",
  "key": {"CIN85_(1-333) [1]": {"biological_target": "T1, CIN85_(1-333) (human, UniProt Q96B97 1-333, 15N-labeled in the PRE experiment; unlabeled in the HSQC titration)", "T1 construct": "CIN85 (SH3KBP1), human, residues 1-333 with the three N-terminal SH3 domains, lacking the C-terminal coiled coil; also called monomeric CIN85; source: E. coli BL21(DE3), purified (Ni-NTA, TEV cleavage, size exclusion); not shown: His7, N-terminal, cleaved", "T1 sequence (looked up)": "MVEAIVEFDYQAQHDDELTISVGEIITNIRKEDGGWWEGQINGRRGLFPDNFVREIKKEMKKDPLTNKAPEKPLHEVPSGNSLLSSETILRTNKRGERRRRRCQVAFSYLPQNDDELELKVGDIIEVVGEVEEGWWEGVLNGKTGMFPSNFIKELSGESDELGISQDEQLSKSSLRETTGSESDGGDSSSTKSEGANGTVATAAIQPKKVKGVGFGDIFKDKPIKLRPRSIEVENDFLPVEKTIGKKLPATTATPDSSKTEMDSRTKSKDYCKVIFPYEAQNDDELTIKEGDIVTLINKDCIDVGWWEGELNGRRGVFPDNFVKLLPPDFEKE", "experiment": "NMR titration; 15N-HSQC of 60 µM 15N-labeled SLP65_(1-330) titrated with increasing amounts of unlabeled CIN85_(1-333); 293 K; 20 mM HEPES pH 7.2, 100 mM NaCl, 1 mM TCEP, 0.5 mM Pefabloc"}, "CIN85Δ57": {"biological_target": "T2, CIN85Δ57 (human, UniProt Q96B97 1-665, deletion of residues 369-425)", "T2 construct": "CIN85 (SH3KBP1), human, amplified with primers from the start ATG to the stop codon, residues 369-425 deleted; The tag and its cleavage follow only from 'Protein expression and purification was performed as described above'; also called trimeric CIN85Δ57; source: E. coli, modified pET28a vector, purified as the other constructs; not shown: His7, N-terminal, cleaved", "experiment": "NMR titration; 15N-HSQC of 15 µM 15N-labeled SLP65_(1-330) with CIN85Δ57 added, without or with SUVs (phase-separated samples); peak intensity ratio over SLP65 only; 293 K; 20 mM HEPES pH 7.2, 100 mM NaCl, 1 mM TCEP"}, "CIN85_(1-333) [2]": {"biological_target": "T1, CIN85_(1-333)", "experiment": "NMR paramagnetic relaxation enhancement (1H R2-PRE); 15N-labeled CIN85_(1-333) mixed with MTSL-tagged SLP65 constructs at 10:1 molar ratio; TROSY with two-point delay; constructs without MTSL with 1 mM TCEP as diamagnetic reference; 293 K"}},
  "note": "Changes are numbered by the printed parent chain. In names and notes the source's numbering stands.",
  "data": [
    {"binder": "B1", "values": [
      {"measurement": "binding result", "setting": "CIN85_(1-333) [1]", "value": "binds"},
      {"measurement": "binding result", "setting": "CIN85Δ57", "value": "binds"}
    ]},
    {"binder": "B2", "values": [
      {"measurement": "binding result", "setting": "CIN85_(1-333) [2]", "value": "binds"}
    ]},
    {"binder": "B3", "values": [
      {"measurement": "binding result", "setting": "CIN85_(1-333) [2]", "value": "binds"}
    ]},
    {"binder": "B4", "values": [
      {"measurement": "binding result", "setting": "CIN85_(1-333) [2]", "value": "binds"}
    ]},
    {"binder": "B5", "values": [
      {"measurement": "binding result", "setting": "CIN85_(1-333) [2]", "value": "binds"}
    ]}
  ]
}
